Measurements: patent US20140348865A1, “[…] ON AN HIV-1 V1V2 SITE-OF-VULNERABILITY” (The United States of America, as represented by the …, priority 2011, published 2014)
Positions count from the first letter of the chain named.

Assays:
Assay type in all cases: binding, human
monoclonal antibody PG9 = experiment: ELISA of minimal epitope scaffolds with PG9; details: GnTI- cell expression
Description: (§1) The supernatants of all wells expressing minimal epitope scaffolds were tested for binding to PG9, CH01, CH03, PGT145 and PGT142 antibodies through ELISA assays in which the supernatant was diluted 5-fold in PBS and incubated on nickel coated plates. […] Some, such as 2ZJR_A, were run over a protein A column coated in PG9 which was subsequently cleaved from the column resulting in an eluted complex consisting of the scaffolds and the PG9 Fab.

PG9 Fab = experiment: Gel filtration of epitope scaffold complex with PG9 Fab
Description: as §1

PG9 = experiment: Immunoprecipitation of protein nanoparticles with PG9; details: Protein A agarose, SDS-PAGE, Coomassie stain
Description: (§2) The minimal PG9 epitope (residues 154-177) or variations thereof, were inserted or fused to ferritin, encapsulin or SOR genes using the schemes shown in FIG. 59. The expression plasmids were transfected into HEK293 cells grown in the presence of swainsonine, or transfected into HEK293 GnTI^−/− cells. Particles were purified from the media using lectin affinity chromatography (snow drop lectin from Galanthus nivalis) followed by size-exclusion chromatography. Binding experiments were performed by incubating purified particles or particle-containing expression supernatant with the listed antibodies (PG9, PG16, VRC01) and Protein A agarose resin. After this incubation, the resin was pelleted and washed several times, and then incubated with SDS-containing buffer at 100 C. The solubilized and denatured proteins were separated by SDS-PAGE and visualized with Coomassie stain.

PG16 = experiment: Immunoprecipitation of protein nanoparticles with PG16; details: Protein A agarose, SDS-PAGE, Coomassie stain
Description: as §2

B1: 2zjr_a: minimal PG9 epitope-scaffold, SEQ ID NO: 17, native scaffold PDB 2ZJR (protein)
chain: SHYDILQAPVISEKAYSAMERGVYSFWVSPGATKTEIKDAIQQAFGVRVIGISVKHCSFNITTDVKDRKQKVNATFAIVRLAEGQSIEALAGQ
modifications: Human immunodeficiency virus
- binding to monoclonal antibody PG9 (monoclonal antibody PG9): bind
- complex with PG9 Fab through gel filtration (PG9 Fab): intact complex

B2: 3pyr_a: minimal PG9 epitope-scaffold, SEQ ID NO: 76, native scaffold PDB 3PYR (protein)
chain: MKTAYDVILAPVLSEKAYAGFAEGKYTFWVHPKATKTEIKNAVETAFKVKVVKVNTKHASFNITTDVKDRKQKVNATFAIVQVAPGQKIEALEGLIG
modifications: Human immunodeficiency virus
- binding to monoclonal antibody PG9 (monoclonal antibody PG9): bind

B3: 1t0a_a: minimal PG9 epitope-scaffold, SEQ ID NO: 77, native scaffold PDB 1T0A (protein)
chain: KIRIGHGFDVHKFGKHASFNITTDVKDRKQKVNATFGLVAHSDGDVVLHAISDAILGAMALGDIGKHFPDTDAAYKGADSRVLLRHCYALAKAKGFELGNLDVTIIAQAPKMAPHIEDMRQVLAADLNADVADINVKATTTEKLGFTGRKEGIAVEAVVLLSRQG
modifications: Human immunodeficiency virus
- binding to monoclonal antibody PG9 (monoclonal antibody PG9): bind

B4: 2f7s_B: minimal PG9 epitope-scaffold, SEQ ID NO: 52, native scaffold PDB 2F7S (protein)
chain: DYDYLIKLLALGDSGVGKTTFLYRYTDNKFNPKFITTVGIDVKHASFNITTDVKDRKQKVNATFYDTAGQERFRSLTTAFFRDAMGFLLMFDLTSQQSFLNVRNWMSQLQANAYCENPDIVLIGNKADLPDQREVNERQARELADKYGIPYFETSAATGQNVEKAVETLLDLIMKRMEQCVE
modifications: Human immunodeficiency virus
- binding to monoclonal antibody PG9 (monoclonal antibody PG9): bind

B5: 2f7s_C: minimal PG9 epitope-scaffold, SEQ ID NO: 53, native scaffold PDB 2F7S (protein)
chain: B4 chain with D41C, D66C
modifications: Human immunodeficiency virus
- binding to monoclonal antibody PG9 (monoclonal antibody PG9): bind

B6: 1vh8_c: minimal PG9 epitope-scaffold, SEQ ID NO: 65, native scaffold PDB 1VH8 (protein)
chain: SLIRIGHGFDVHAFGKHASFNITTDVKDRKQKVNATFGFIAHSDGDVALHALTDAILGAAALGDIGKLFPKNADSRGLLREAFRQVQEKGYKIGNVDITIIAQAPKMRPHIDAMRAKIAEDLQCDIEQVNVKATTTEKLGFTGRQEGIACEAVALLIRQ
modifications: Human immunodeficiency virus
- binding to monoclonal antibody PG9 (monoclonal antibody PG9): bind

B7: 1YN3_A: minimal PG9 epitope-scaffold, SEQ ID NO: 28, native scaffold PDB 1YN3 (protein)
chain: GSHVSFNITTDVKDRKQKVNATFYKNQNISYKDLEGKVKSVLESNRGITDVDLRLSKQAKYTVNFKNGTKKVIDLKSGIYTANLINSSDIKSININID
modifications: Human immunodeficiency virus
- binding to monoclonal antibody PG9 (monoclonal antibody PG9): bind

B8: 1x3e_C: minimal PG9 epitope-scaffold, SEQ ID NO: 68 in Table 2 (SEQ ID NO: 67 in b296), native scaffold PDB 1X3E (protein)
chain: GDTTITVVGNLTADPELRFTPSGAAVANFTVASTGSALFLRCNIWREAAENVAESLTRGSRVIVTGRLCVKHASFNITTDVKDRKQKVNATFYCVEVDEIGPSLR
modifications: Human immunodeficiency virus
- binding to monoclonal antibody PG9 (monoclonal antibody PG9): bind

B9: 2vxs_a: minimal PG9 epitope-scaffold, SEQ ID NO: 37, native scaffold PDB 2VXS (protein)
chain: TNPKRSSDYYNRSTSPWNLHRNEDPERYPSVIWEAKCRHLGCINADGNVDYHMNSISQNITTDVKDRKQKVNATCTCVTPIVH
modifications: Human immunodeficiency virus
- binding to monoclonal antibody PG9 (monoclonal antibody PG9): bind

B10: 1vh8 b: minimal PG9 epitope-scaffold, SEQ ID NO: 64, native scaffold PDB 1VH8 (protein)
chain: B6 chain with G15V, G38Y
modifications: Human immunodeficiency virus
- binding to monoclonal antibody PG9 (monoclonal antibody PG9): bind

B11: 2zjr_b: minimal PG9 epitope-scaffold, SEQ ID NO: 18, native scaffold PDB 2ZJR (protein)
chain: B1 chain with V54T, C57A
modifications: Human immunodeficiency virus
- binding to monoclonal antibody PG9 (monoclonal antibody PG9): bind

B12: 1vh8_a: minimal PG9 epitope-scaffold, SEQ ID NO: 63, native scaffold PDB 1VH8 (protein)
chain: B6 chain with G15V, A18C, G38Y
modifications: Human immunodeficiency virus
- binding to monoclonal antibody PG9 (monoclonal antibody PG9): bind

B13: 1x3e_a: minimal PG9 epitope-scaffold, SEQ ID NO: 66, native scaffold PDB 1X3E (protein)
chain: B8 chain with C69K, A73C, C94E
modifications: Human immunodeficiency virus
- binding to monoclonal antibody PG9 (monoclonal antibody PG9): bind

B14: PG9e-ferritin (ZM109): ferritin particle displaying the minimal PG9 epitope (gp120 154-177) of HIV-1 strain ZM109 (protein)
chain: MLSKDIIKLLNEQVNKEMQSSNLYMSMSSWCYTHSLDGAGLFLFDHAAEEYEHAKKLIIFLNENNVPVQLTSISAPEHKFEGLTQIFQKAYEHEQHISESINNIVDHAIGVKHSSFNITTDVKDRKQKVNATFYGKDHATFNFLQWYVAEQHEEEVLFKDILDKIELIGNENHGLYLADQYVKGIAKSRKS
- immunoprecipitation by PG9 (PG9): immunoprecipitate
- immunoprecipitation by PG16 (PG16): interacts

B15: PG9e-encapsulin (ZM109): encapsulin particle displaying the minimal PG9 epitope (gp120 154-177) of HIV-1 strain ZM109 (protein)
chain: MEFLKRSFAPLTEKQWQEIDNRAREIFKTQLYGRKFVDVEGPYGWEYAAHPLGEVEVVKHSSFNITTDVKDRKQKVNATFGLRKSLPLIELRATFTLDLWELDNLERGKPNVDLSSLEETVRKVAEFEDEVIFRGCEKSGVKGLLSFEERKIECGSTPKDLLEAIVRALSIFSKDGIEGPYTLVINTDRWINFLKEEAGHYPLEKRVEECLRGGKIITTPRIEDALVVSERGGDFKLILGQDLSIGYEDREKDAVRLFITETFTFQVVNPEALILLK
- immunoprecipitation by PG9 (PG9): immunoprecipitate

B16: 2ZJR: 2ZJR epitope-scaffold of FIG. 58; legend leaves open whether 2ZJR_A or 2ZJR_B (protein)
chain: B1 chain
- complex with PG9 Fab through gel filtration (PG9 Fab): forms a stable complex
